Results published in patent publication US6797811.

Tests used:
FLAG-tagged 88C receptor [1] = target: T1, FLAG-tagged 88C receptor (human, UniProt P51681 1-352); experiment: cell-based or functional assay
T1 sequence: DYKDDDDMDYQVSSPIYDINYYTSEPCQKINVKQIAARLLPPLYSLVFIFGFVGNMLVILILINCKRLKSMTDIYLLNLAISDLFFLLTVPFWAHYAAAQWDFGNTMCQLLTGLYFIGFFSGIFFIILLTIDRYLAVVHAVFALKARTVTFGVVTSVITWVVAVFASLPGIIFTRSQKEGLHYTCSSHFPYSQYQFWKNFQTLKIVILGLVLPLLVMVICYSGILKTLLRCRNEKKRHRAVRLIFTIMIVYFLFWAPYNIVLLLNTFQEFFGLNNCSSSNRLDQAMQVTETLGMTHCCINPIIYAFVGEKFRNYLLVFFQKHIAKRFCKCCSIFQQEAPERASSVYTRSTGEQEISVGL

FLAG-tagged 88C receptor [2] = target: T1, FLAG-tagged 88C receptor; experiment: equilibrium binding of 125I-MIP-1β to HEK-293 cells expressing FLAG-tagged 88C, Scatchard analysis
Description: (§1) Another assay for receptor interaction with chemokines was a modification of the binding assay described by Ernst et al. *J. Immunol.* 152:3541–3549 (1994). MIP-1β as labeled using the Bolton and Hunter reagent (di-iodide, NEN, Wilmington, Del.), according to the manufacturer's instructions. Unconjugated iodide was separated from labeled protein by elution using a PD-10 column (Pharmacia) equilibrated with PBS and BSA (1% w/v). The specific activity was typically 2200 Ci/mmole. Equilibrium binding was performed by adding ^125I-labeled ligand with or without a 100-fold excess of unlabeled ligand, to 5×10^5 HEK-293 cells transfected with 88C tagged with the FLAG epitope in polypropylene tubes in a total volume of 300 µl (50 mM HEPES pH 7.4, 1 mM CaCl_2, MgCl_2, 0.5% BSA) and incubating for 90 minutes at 27° C. with shaking at 150 rpm. […] After washing, the filters were removed and bound ligand was quantitated by counting gamma emissions. Ligand binding by competition with unlabeled ligand was determined by incubation of 5×10^5 transfected cells (as above) with 1.5 nM of radiolabeled ligand and the indicated concentrations of unlabeled ligand. The samples were collected, washed and counted as above. The data was analyzed using the curve-fitting program Prism (GraphPad Inc., San Diego, Calif.) and the iterative non-linear regression program, LIGAND (PM220).

FLAG-tagged 88C receptor [3] = target: T1, FLAG-tagged 88C receptor; experiment: competition of unlabelled ligand with 1.5 nM 125I-MIP-1β on HEK-293 cells expressing FLAG-tagged 88C
Description: as §1

B1: MIP-1β (ligand, UniProt P13236 24-92, looked up)
chain: APMGSDPPTACCFSYTARKLPRNFVVDYYETSSLCSQPAVVFQTKRSKQVCADPSESWVQEYVYDLELN
notes: also called MIP-1beta; radiolabeled MIP-1β
EC50 of inositol phosphate formation (phospholipase C assay), COS-7 cells co-transfected with Gqi5 (FLAG-tagged 88C receptor [1]): 6 nM
Kd (FLAG-tagged 88C receptor [2]): 1.6 nM
IC50 (FLAG-tagged 88C receptor [3]): 7.4 nM
